From the supplement of paper PMC6757056
± gives the standard deviation of the averaged measurements.

B1: library; a variant is named by its letters at N, in order (parent)
chain: GCUGUCACCGAGAAACUGUGAAGUAUAUCUUAAACCUGGGCACUUAAAAGAUAUAUGGAGUUAGUAGUGCAACCUGCUCGGUCUGAUGAGUCCNNNNNNGGACGAAACAGC

Columns and labels:
cyclic di-GMP [1] = variants of: B1; assay: normalized RNA/DNA level without ligand (relative to sTRSVctl = 100) (log10 (% of sTRSVctl)); HEK293T; ligand: cyclic di-GMP (c-di-GMP-II aptamer); higher = less ribozyme self-cleavage, higher mRNA level; conditions: reporter: mCherry (pCS4076), ligand present: no
How it was run: (§1)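 HEK293T cells were transfected with library plasmids carrying ribozyme switches linked to an mCherry reporter, or an eGFP reporter in some ligand experiments, at 4 µg per well of a 6-well plate, with any ligand added 1 h beforehand. After 72 h, total RNA was extracted with EDTA, reverse-transcribed, amplified, barcoded and sequenced. RNA level was defined as RNA reads over DNA reads, normalized to a spiked-in non-cleaving sequence or to the top-ranked sequences. That value was multiplied by 100 and converted to log10, the top set was 25 sequences, and only sequences with ≥100 DNA reads were retained.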

cyclic di-GMP [2] = variants of: B1; assay: normalized RNA/DNA level with ligand (relative to sTRSVctl = 100) (log10 (% of sTRSVctl)); HEK293T; ligand: cyclic di-GMP (c-di-GMP-II aptamer); ligand concentration (+) RNA-Seq: 1 mM; higher = less ribozyme self-cleavage, higher mRNA level; conditions: reporter: mCherry (pCS4076), ligand present: yes
How it was run: as §1

cyclic di-GMP [3] = variants of: B1; assay: FACS-Seq fitted mean relative fluorescence mCherry/BFP without ligand (log10 relative fluorescence); HEK293T; ligand: cyclic di-GMP (c-di-GMP-II aptamer); higher = higher reporter protein expression; conditions: ligand present: no
How it was run: (§2)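 After lentiviral transduction, HEK293T library cells bearing an mCherry ribozyme-switch reporter and an EF1α-BFP marker were enriched. They were then held for 48 h with or without ligand and sorted by mCherry/BFP into 6 bins, and each bin's genomic DNA was PCR-amplified, barcoded and MiSeq-sequenced. Fluorescence is expressed as a normalized fitted mean: the normal mean of log10(mCherry/BFP) bin counts, scaled to five spiked-in control ribozymes.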

cyclic di-GMP [4] = variants of: B1; assay: FACS-Seq fitted mean relative fluorescence mCherry/BFP with ligand (log10 relative fluorescence); HEK293T; ligand: cyclic di-GMP (c-di-GMP-II aptamer); ligand concentration (+) FACS-Seq: 1 mM; higher = higher reporter protein expression; conditions: ligand present: yes
How it was run: as §2

| Variant | normalized RNA/DNA level without ligand (log10) (cyclic di-GMP [1]) | normalized RNA/DNA level with ligand (log10) (cyclic di-GMP [2]) | FACS-Seq fitted mean (log10) (cyclic di-GMP [3]) | FACS-Seq fitted mean (log10) (cyclic di-GMP [4]) |
| --- | --- | --- | --- | --- |
| CAACCG | 1.817 ± 0.009 | 1.88 ± 0.071 |  |  |
| CAACCA | 1.54 ± 0.084 | 1.71 ± 0.1 |  |  |
| CAACCC | 1.719 ± 0.015 | 1.82 ± 0.12 |  |  |
| GUUCCA | 1.65 ± 0.022 | 1.81 ± 0.12 | -0.877 ± 0.03 | -0.674 ± 0.016 |
| UAAGAU | 1.597 ± 0.0022 | 1.79 ± 0.13 |  |  |
| UAAGAG | 1.61 ± 0.017 | 1.74 ± 0.086 |  |  |
| UAAGAC | 1.647 ± 0.0022 | 1.82 ± 0.13 |  |  |
| UAAGAA | 1.597 ± 0.008 | 1.74 ± 0.13 |  |  |
| AAAAUA | 1.48 ± 0.041 | 1.69 ± 0.1 |  |  |
| AUGUUA | 1.523 ± 0.0094 | 1.73 ± 0.1 | -0.342 ± 0.13 | -0.0703 ± 0.042 |
| CAAGAC | 1.64 ± 0.06 | 1.8 ± 0.082 |  |  |
| CAAGAU | 1.6 ± 0.048 | 1.79 ± 0.086 |  |  |
| CAAGAG | 1.6 ± 0.023 | 1.78 ± 0.14 |  |  |
| AUUCCC | 1.8 ± 0.045 | 1.89 ± 0.11 | -0.55 ± 0.097 | -0.405 ± 0.018 |
| AUUCCA | 1.7 ± 0.044 | 1.88 ± 0.14 | -0.182 ± 0.1 | -0.0711 ± 0.041 |
| GAAUAC | 1.62 ± 0.026 | 1.78 ± 0.095 |  |  |
| AAACGU | 1.47 ± 0.095 | 1.62 ± 0.18 |  |  |
| AAACGC | 1.67 ± 0.027 | 1.85 ± 0.082 |  |  |
| AAACGA | 1.39 ± 0.15 | 1.57 ± 0.097 |  |  |
| CUUACA | 1.55 ± 0.067 | 1.72 ± 0.077 | -0.457 ± 0.02 | -0.154 ± 0.088 |
| CUUCUA | 1.44 ± 0.072 | 1.67 ± 0.075 | -0.605 ± 0.032 | -0.312 ± 0.059 |
| GAACGG | 1.703 ± 0.0094 | 1.78 ± 0.082 |  |  |
| GAACGC | 1.64 ± 0.07 | 1.78 ± 0.058 |  |  |
| AUUGCC | 1.776 ± 0.0015 | 1.92 ± 0.12 | -0.0783 ± 0.14 | 0.207 ± 0.0046 |
| GAAGUA | 1.64 ± 0.021 | 1.76 ± 0.061 |  |  |
